Assay results reported in PMC9407390 (Proceedings of the National Academy of Sciences of the …, 2022).

Molecular target: the molecule itself
Experiment: crystal structure

B1: soluble C terminus (soluble domain, residues 343 to 882) of Medicago truncatula DMI1 (domain or fragment)
chain: SEVIERNHVLILGWSDKLGSLLKQLAIANKSVGGGVIVVLAEKEKEEMEMDIAKLEFDFMGTSVICRSGSPLILADLKKVSVSKARAIIVLAADENADQSDARALRVVLSLAGVKEGLRGHVVVEMSDLDNEPLVKLVGGELIETVVAHDVIGRLMIQCALQPGLAQIWEDILGFENAEFYIKRWPELDDLLFKDILISFPDAIPCGVKVAADGGKIVINPDDNYVLRDGDEVLVIAEDDDTYAPGPLPEVRKGYFPRIRDPPKYPEKILFCGWRRDIDDMIMVLEAFLAPGSELWMFNEVPEKERERKLAAGELDVFGLENIKLVHREGNAVIRRHLESLPLETFDSILILADESVEDSVAHSDSRSLATLLLIRDIQSRRLPYRDTKSTSLRLSGFSHNSWIREMQQASDKSIIISEILDSRTRNLVSVSRISDYVLSNELVSMALAMVAEDKQINRVLEELFAEEGNEMCIKPAEFYLFDQEELCFYDIMIRGRTRKEIVIGYRLANQERAIINPSEKSVPRKWSLDDVFVVLASGE
  stoichiometry N: 4
